Data on three molecules can be found in US20070111265A1 (published 2007).

In general, IC50 refers to the concentration at which inhibition is half-maximal. High values mean weaker potency, low ones greater potency.

The target of assay [1] is T1, human MR LBD (residues 727-984) containing a C808S mutation, 6xHis-GST fusion protein (;human, UniProt P08235 727-984).
T1 chain: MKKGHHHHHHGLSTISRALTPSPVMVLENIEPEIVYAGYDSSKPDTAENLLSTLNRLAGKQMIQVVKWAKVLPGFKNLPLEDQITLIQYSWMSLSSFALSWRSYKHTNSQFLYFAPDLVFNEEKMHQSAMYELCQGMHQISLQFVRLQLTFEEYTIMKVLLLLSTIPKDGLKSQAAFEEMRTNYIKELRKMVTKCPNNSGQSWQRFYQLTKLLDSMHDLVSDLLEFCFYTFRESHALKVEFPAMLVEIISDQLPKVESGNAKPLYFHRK
Description: AlphaScreen peptide competition; corticosterone.

Assay [2] concerns the target T1, human MR LBD (residues 727-984) …. Description: AlphaScreen competition; corticosterone. For orientation: Alpha assays give light when donor and acceptor beads are brought close together.

B1: unlabeled PGC1α-1 peptide (peptide)
peptide: AEEPSLLKKLLLAPA
Regarding B1, in assay [1], the IC50 is 900 nM.

B2: PGC1α-(1+2), human PGC1α fragment (residues 1-220) containing both LXXLL motifs, 6xHis-GST fusion protein (other)
chain: MAWDMCNQDSESVWSDIECAALVGEDQPLCPDLPELDLSELDVNDLDTDSFLGGLKWCSDQSEIISNQYNNEPSNIFEKIDEENEANLLAVLTETLDSLPVDEDGLPSFDALTDGDVTTDNEASPSSMPDGTPPPQEAEEPSLLKKLLLAPANTQLSYNECSGLSTQNHANHNHRIRTNPAIVKTENSWSNKAKSICQQQKPQRRPCSELLKYLTTNDDP
In turn, B2 came in with an IC50 in assay [2] of 40 nM.

B3: unlabeled PGC1α-2 peptide (peptide)
peptide: RRPCSELLKYLTTND
As for B3, the concentration for half-maximal inhibition (IC50) in assay [1] is 1100 nM.
